Data on seven molecules can be found in patent publication US20150011431A1 (Scripps Research, published 2015).

The target in assay [1] is T1, CXCR1 (UniProt P25024 1-350, limits assumed).
T1 construct: whole, on cells; DiscoveRx cells engineered with a luminescent reporter enzyme for beta-arrestin recruitment; also called CXCR1-U2OS; U2OS-CXCR1
T1 sequence (looked up): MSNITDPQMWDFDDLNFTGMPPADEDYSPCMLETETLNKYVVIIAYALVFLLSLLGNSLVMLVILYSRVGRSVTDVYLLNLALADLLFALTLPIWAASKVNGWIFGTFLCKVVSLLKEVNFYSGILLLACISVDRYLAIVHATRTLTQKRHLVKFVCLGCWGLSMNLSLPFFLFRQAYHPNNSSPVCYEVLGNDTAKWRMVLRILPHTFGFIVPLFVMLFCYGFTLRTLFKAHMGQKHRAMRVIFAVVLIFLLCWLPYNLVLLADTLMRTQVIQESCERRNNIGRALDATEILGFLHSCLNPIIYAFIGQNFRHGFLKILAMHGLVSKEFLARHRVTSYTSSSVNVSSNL
Briefly: flow cytometry with 2 ug/ml heparin sulfate, IgG normalized to 10 nM; CXCR1-U2OS against parental U2OS cells. How it is done:
(§1) Cell culture supernatants were then tested for binding to cells by flow cytometry. The adherent U2OS or CXCR1-U2OS cells were dissociated with Accutase (Innovative Cell Technologies, Inc., San Diego, Calif.), neutralized with an equal volume of media containing 10% serum, centrifuged at 1000 g, and resuspended in PBS with 2% BSA. Next, cells were dispensed into microtiter plates to achieve between 30,000 to 300,000 cells per well, centrifuged again, and resuspended in cell culture supernatant containing expressed IgG, or a dilution of IgG-containing cell culture supernatant. A fluorescent-conjugated anti-Human Fc antibody was used to detect binding of the expressed antibody to cells.
In an exemplary method, variants of V1-51 were made by overlap PCR and subcloned into pFuse vector for expression as described in Example 4. […] These V1-51 variants were paired with heavy chains encoding VH4-34+CDR3-IL8 (SEQ ID NO: 430), VH4-34+CDR3-IL8_CDR1 Cow (SEQ ID NO: 432), VH4-34+CDR3-IL8_CDR2 Cow (SEQ ID NO: 433), or VH4-34+CDR3-IL8_CDR1 Cow CDR2 Cow, (SEQ ID NO: 436). Transfections and ELISA were carried out as described above, and flow cytometry was used to evaluate CXCR1 binding specificity as previously described, with the modification that cells were resuspended in 2% BSA in PBS plus 2 ug/ml Heparin sulfate, and IgGs were normalized to 10 nM during incubation on cells.

The target in assay [2] is T1, CXCR1. Briefly: flow cytometry; fluorescence on CXCR1-U2OS cells over fluorescence on parental U2OS cells. How it is done:
as §1, with “In an exemplary method, BLV1H12 IgG comprising a CDR3 with an IL-8 insert (e.g., the IL-8 sequence replaced a portion of the CDR3) was evaluated for binding to CXCR1 expressing cells by flow cytometry. Briefly, a cell line expressing functionally validated CXCR1 derived from U2OS cells was obtained from DiscoveRx and cultured per manufacturer's instructions (Cat#93-0226C3, DiscoveRx Corporation, Freemont, Calif.). The parental cell line U2OS was obtained from ATCC and cultured under the same conditions as the CXCR1 cells. Cell culture” for “Cell culture”
In an exemplary method, certain residues in VH4-34 CDR1 and/or CDR2 were substituted with corresponding CDR1 and/or CDR2 residues from BLV1H12. Briefly, the pFuse vector encoding heavy chain VH4-34 CDR3-IL8 was modified by overlap PCR to replace all of CDR1 with sequence from BLV1H12 (VH4-34+CDR3-IL8_CDR1 Cow, SEQ ID NO: 432) or all of CDR2 with sequence from BLV1 H12 (VH4-34+CDR3-IL8_CDR2 Cow, SEQ ID NO: 433).
(In general: In flow cytometry, cells or beads pass a laser one at a time.)

The target in assay [3] is T1, CXCR1. The assay is described as follows: flow cytometry, IgG-containing supernatant on CXCR1-U2OS cells, fluorescent anti-human Fc. How it is done: as §1, with “In an exemplary method, BLV1H12 IgG comprising a CDR3 with an IL-8 insert (e.g., the IL-8 sequence replaced a portion of the CDR3) was evaluated for binding to CXCR1 expressing cells by flow cytometry. Briefly, a cell line expressing functionally validated CXCR1 derived from U2OS cells was obtained from DiscoveRx and cultured per manufacturer's instructions (Cat#93-0226C3, DiscoveRx Corporation, Freemont, Calif.). The parental cell line U2OS was obtained from ATCC and cultured under the same conditions as the CXCR1 cells. Cell culture” for “Cell culture”
(§2) Additionally, the human germline CDR3-IL8 IgGs described in Example 5 were evaluated for binding to CXCR1 expressing cells by flow cytometry as described above. IgG binding to CXCR1-U2OS cells is indicated by higher fluorescence values, but non-specific binding to U2OS parental cells is also detectable.

Assay [4] concerns the target T1, CXCR1. Briefly: flow cytometry; fluorescence on CXCR1-U2OS cells over fluorescence on parental U2OS cells. How it is done:
as §1, with “In an exemplary method, BLV1H12 IgG comprising a CDR3 with an IL-8 insert (e.g., the IL-8 sequence replaced a portion of the CDR3) was evaluated for binding to CXCR1 expressing cells by flow cytometry. Briefly, a cell line expressing functionally validated CXCR1 derived from U2OS cells was obtained from DiscoveRx and cultured per manufacturer's instructions (Cat#93-0226C3, DiscoveRx Corporation, Freemont, Calif.). The parental cell line U2OS was obtained from ATCC and cultured under the same conditions as the CXCR1 cells. Cell culture” for “Cell culture”
as §2
This is another data set of the same source.

B1: IgG with VH4-34+CDR3-IL8_CDR1 Cow CDR2 Cow and light chain V1-51 CDR2 DNN to GDT (antibody)
heavy: not shown
light: QSVLTQPPSVSAAPGQKVTISCSGSSSNIGNNYVSWYQQLPGTAPKLLIYGDTKRPSGIPDRFSGSKSGTSATLGITGLQTGDEADYYCASAEDSSSNAVFGSGTTLTVLGQPKAAPSVTLFPPSSEELQANKATLVCLISDFYPGAVTVAWKADSSPVKAGVETTTPSKQSNNKYAASSYLSLTPEQWKSHRSYSCQVTHEGSTVEKTVAPTECS
notes: IgG, human IgG1 CH1-CH2-CH3; normalized to 10 nM; also called VH4-34 CDR3-IL8 CDR1-Cow & CDR2-Cow / V1-51 CDR2 DNN to GDT
Take B1: the CXCR1 specificity with CXCR1 [1] was 16.7.

B2: IgG with VH4-34+CDR3-IL8_CDR1 G31D, Y32K and BLV1H12 light chain (antibody)
VH: QVQLQQWGAGLLKPSETLSLTCAVYGGSFSDKYWSWIRQPPGKGLEWIGEINHSGSTNYNPSLKSRVTISVDTSKNQFSLKLSSVTAADTAVYYCTSVHQETKKYQSPRSAKELRCQCIKTYSKPFHPKFIKELRVIESGPHCANTEIIVKLSDGRELCLDPKENWVQRVVEKFLKRAENSGSGSYTYNYEWHVDVWGQGLLVTVSSAS
VL: QAVLNQPSSVSGSLGQRVSITCSGSSSNVGNGYVSWYQLIPGSAPRTLIYGDTSRASGVPDRFSGSRSGNTATLTISSLQAEDEADYFCASAEDSSSNAVFGSGTTLTVLGQPKSPPSVTLFPPSTEELNGNKATLVCLISDFYPGSVTVVWKADGSTITRNVETTRASKQSNSKYAASSYLSLTSSDWKSKGSYSCEVTHEGSTVTKTVKPSECS
notes: IgG, human IgG1 CH1-CH2-CH3; also called VH4-34 + CDR3-IL8 + E31D, Y32K
In the case of B2, the “FACS CXCR1/Parental Ratio” value with CXCR1 [2] was 8.1.

B3: IgG with VH4-34+CDR3-IL8_CDR1 Cow and BLV1H12 light chain (antibody)
VH: QVQLQQWGAGLLKPSETLSLTCTASGFSLSDKAVGWIRQPPGKGLEWIGEINHSGSTNYNPSLKSRVTISVDTSKNQFSLKLSSVTAADTAVYYCTSVHQETKKYQSPRSAKELRCQCIKTYSKPFHPKFIKELRVIESGPHCANTEIIVKLSDGRELCLDPKENWVQRVVEKFLKRAENSGSGSYTYNYEWHVDVWGQGLLVTVSSAS
VL: QAVLNQPSSVSGSLGQRVSITCSGSSSNVGNGYVSWYQLIPGSAPRTLIYGDTSRASGVPDRFSGSRSGNTATLTISSLQAEDEADYFCASAEDSSSNAVFGSGTTLTVLGQPKSPPSVTLFPPSTEELNGNKATLVCLISDFYPGSVTVVWKADGSTITRNVETTRASKQSNSKYAASSYLSLTSSDWKSKGSYSCEVTHEGSTVTKTVKPSECS
notes: IgG, human IgG1 CH1-CH2-CH3; also called VH4-34 + CDR3-IL8 + Cow CDR1
On to B3, for which, in the assay with CXCR1 [2], the “FACS CXCR1/Parental Ratio” value was 2.1.

B4: IgG with VH1-46+CDR3-IL8 (antibody)
VH: QVQLVQSGAEVKKPGASVKVSCKASGYTFTSYYMHWVRQAPGQGLEWMGIINPSGGSTSYAQKFQGRVTMTRDTSTSTVYMELSSLRSEDTAVYYCTSVHQETKKYQSPRSAKELRCQCIKTYSKPFHPKFIKELRVIESGPHCANTEIIVKLSDGRELCLDPKENWVQRVVEKFLKRAENSGSGSYTYNYEWHVDVWGQGLLVTVSSAS
light: not shown
notes: IgG; VH cloned before human IgG1 CH1-CH2-CH3 in HC pFuse; cell culture supernatant; also called VH1-46 BLVCDR3IL8
As for B4, the “median fluorescence on CXCR1-U2OS” value in the assay with CXCR1 [3] turned out to be 6 AFU. Besides, in the assay with CXCR1 [4], the “Ratio of CXCR1/Parental” value worked out at 1.1.

B5: IgG with VH4-34+CDR3-IL8_CDR1 Cow and light chain V1-51 S2A, T5N, P8S, A12G, A13S, P14L & DNN to GDT (antibody)
heavy: not shown
light: QAVLNQPSSVSGSLGQKVTISCSGSSSNIGNNYVSWYQQLPGTAPKLLIYGDTKRPSGIPDRFSGSKSGTSATLGITGLQTGDEADYYCASAEDSSSNAVFGSGTTLTVLGQPKAAPSVTLFPPSSEELQANKATLVCLISDFYPGAVTVAWKADSSPVKAGVETTTPSKQSNNKYAASSYLSLTPEQWKSHRSYSCQVTHEGSTVEKTVAPTECS
notes: IgG, human IgG1 CH1-CH2-CH3; normalized to 10 nM; also called VH4-34 CDR3-IL8 CDR1-Cow / V1-51 S2A, T5N, P8S, A12G, A13S, P14L & DNN to GDT
B5: in the assay with CXCR1 [1], the CXCR1 specificity came out at 6.8.

B6: IgG with VH4-4+CDR3-IL8 (antibody)
VH: QVQLQESGPGLVKPSETLSLTCTVSGGSISSYYWSWIRQPAGKGLEWIGRIYTSGSTNYNPSLKSRVTMSVDTSKNQFSLKLSSVTAADTAVYYCTSVHQETKKYQSPRSAKELRCQCIKTYSKPFHPKFIKELRVIESGPHCANTEIIVKLSDGRELCLDPKENWVQRVVEKFLKRAENSGSGSYTYNYEWHVDVWGQGLLVTVSSAS
light: not shown
notes: IgG; VH cloned before human IgG1 CH1-CH2-CH3 in HC pFuse; also called VH4-4 BLVCDR3IL8
As to B6, the “median fluorescence on CXCR1-U2OS” value in the assay with CXCR1 [3] was determined as 3080 AFU. In the assay with CXCR1 [4], the “Ratio of CXCR1/Parental” value was determined as 3.1.

B7: IgG with VH1-24+CDR3-IL8 (antibody)
VH: QVQLVQSGAEVKKPGASVKVSCKVSGYTLTELSMHWVRQAPGKGLEWMGGFDPEDGETIYAQKFQGRVTMTEDTSTDTAYMELSSLRSEDTAVYYCTSVHQETKKYQSPRSAKELRCQCIKTYSKPFHPKFIKELRVIESGPHCANTEIIVKLSDGRELCLDPKENWVQRVVEKFLKRAENSGSGSYTYNYEWHVDVWGQGLLVTVSSAS
light: not shown
notes: IgG; VH cloned before human IgG1 CH1-CH2-CH3 in HC pFuse; cell culture supernatant; also called VH1-24 BLVCDR3IL8
As for B7, the “median fluorescence on CXCR1-U2OS” value in the assay with CXCR1 [3] amounted to 23 AFU. Also, the “Ratio of CXCR1/Parental” value in the assay with CXCR1 [4] was found to be 4.3.
